From patent US20180155451A1 (published 2018)

B1: GpH7-A5/GpH7-B3 variant G237_13S/GpL16-k0 (antibody, human IgG1, kappa)
heavy 1: not shown
heavy 2: not shown
light: DIVMTQSPLSLPVTPGEPASISCQASESLVHSNRNTYLHWYLQKPGQSPQLLIYKVSNRFSGVPDRFSGSGSGTDFTLKISRVEAEDVGVYYCSQNTHVPPTFGQGTKVEIERTVAAPSVFIFPPSDEQLKSGTASVVCLLNNFYPREAKVQWKVDNALQSGNSQESVTEQDSKDSTYSLSSTLTLSKADYEKHKVYACEVTHQGLSSPVTKSFNRGEC
notes: Heterodimerized anti-glypican-3 IgG1; alteration in the GpH7-B3 chain only; also called He Ab
B2: GpH7-A5/GpH7-B3 variant P238_16H/GpL16-k0 (antibody, human IgG1, kappa)
heavy 1: not shown
heavy 2: not shown
light: DIVMTQSPLSLPVTPGEPASISCQASESLVHSNRNTYLHWYLQKPGQSPQLLIYKVSNRFSGVPDRFSGSGSGTDFTLKISRVEAEDVGVYYCSQNTHVPPTFGQGTKVEIERTVAAPSVFIFPPSDEQLKSGTASVVCLLNNFYPREAKVQWKVDNALQSGNSQESVTEQDSKDSTYSLSSTLTLSKADYEKHKVYACEVTHQGLSSPVTKSFNRGEC
notes: as for B1
B3: GpH7-A5/GpH7-B3 variant P238_18N/GpL16-k0 (antibody, human IgG1, kappa)
heavy 1: not shown
heavy 2: not shown
light: DIVMTQSPLSLPVTPGEPASISCQASESLVHSNRNTYLHWYLQKPGQSPQLLIYKVSNRFSGVPDRFSGSGSGTDFTLKISRVEAEDVGVYYCSQNTHVPPTFGQGTKVEIERTVAAPSVFIFPPSDEQLKSGTASVVCLLNNFYPREAKVQWKVDNALQSGNSQESVTEQDSKDSTYSLSSTLTLSKADYEKHKVYACEVTHQGLSSPVTKSFNRGEC
notes: as for B1
B4: GpH7-A5/GpH7-B3 variant S239_01G/GpL16-k0 (antibody, human IgG1, kappa)
heavy 1: not shown
heavy 2: not shown
light: DIVMTQSPLSLPVTPGEPASISCQASESLVHSNRNTYLHWYLQKPGQSPQLLIYKVSNRFSGVPDRFSGSGSGTDFTLKISRVEAEDVGVYYCSQNTHVPPTFGQGTKVEIERTVAAPSVFIFPPSDEQLKSGTASVVCLLNNFYPREAKVQWKVDNALQSGNSQESVTEQDSKDSTYSLSSTLTLSKADYEKHKVYACEVTHQGLSSPVTKSFNRGEC
notes: as for B1
B5: GpH7-A5/GpH7-B3 variant P238_08L/GpL16-k0 (antibody, human IgG1, kappa)
heavy 1: not shown
heavy 2: not shown
light: DIVMTQSPLSLPVTPGEPASISCQASESLVHSNRNTYLHWYLQKPGQSPQLLIYKVSNRFSGVPDRFSGSGSGTDFTLKISRVEAEDVGVYYCSQNTHVPPTFGQGTKVEIERTVAAPSVFIFPPSDEQLKSGTASVVCLLNNFYPREAKVQWKVDNALQSGNSQESVTEQDSKDSTYSLSSTLTLSKADYEKHKVYACEVTHQGLSSPVTKSFNRGEC
notes: as for B1
B6: GpH7-A5/GpH7-B3 variant P238_07I/GpL16-k0 (antibody, human IgG1, kappa)
heavy 1: not shown
heavy 2: not shown
light: DIVMTQSPLSLPVTPGEPASISCQASESLVHSNRNTYLHWYLQKPGQSPQLLIYKVSNRFSGVPDRFSGSGSGTDFTLKISRVEAEDVGVYYCSQNTHVPPTFGQGTKVEIERTVAAPSVFIFPPSDEQLKSGTASVVCLLNNFYPREAKVQWKVDNALQSGNSQESVTEQDSKDSTYSLSSTLTLSKADYEKHKVYACEVTHQGLSSPVTKSFNRGEC
notes: as for B1
B7: GpH7-A5/GpH7-B3 variant G237_18N/GpL16-k0 (antibody, human IgG1, kappa)
heavy 1: not shown
heavy 2: not shown
light: DIVMTQSPLSLPVTPGEPASISCQASESLVHSNRNTYLHWYLQKPGQSPQLLIYKVSNRFSGVPDRFSGSGSGTDFTLKISRVEAEDVGVYYCSQNTHVPPTFGQGTKVEIERTVAAPSVFIFPPSDEQLKSGTASVVCLLNNFYPREAKVQWKVDNALQSGNSQESVTEQDSKDSTYSLSSTLTLSKADYEKHKVYACEVTHQGLSSPVTKSFNRGEC
notes: as for B1

Columns and labels:
[1] = biological target: T1, FcγRIIa H (human, UniProt P12318 34-217); assay: SPR (Biacore), antibody captured, FcγR as analyte; relative to HeCon Ab
T1 construct: extracellular domain; Soluble extracellular domain with C-terminal His tag, expressed in FreeStyle293 cells; also called FcgRIIa H; 2aH; not shown: C-terminal His tag
T1 sequence (looked up): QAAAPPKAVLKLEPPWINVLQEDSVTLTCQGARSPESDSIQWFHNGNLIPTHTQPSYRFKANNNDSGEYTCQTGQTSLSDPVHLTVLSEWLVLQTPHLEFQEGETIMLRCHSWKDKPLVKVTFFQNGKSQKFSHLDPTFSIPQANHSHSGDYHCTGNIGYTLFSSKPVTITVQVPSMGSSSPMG
Method: (§1) The heterodimerized antibodies He Abs in which one of the H chains was introduced with an alteration were assayed for their binding activities to each activating FcγR and inhibitory FcγR according to the method described in Example 4. […] The activating FcγRs in FIGS. 26, 27, 28, and 29 are FcγRIa, FcγRIIa (R), FcγRIIa (H), and FcγRIIIa, respectively.
(§2) Analysis of interaction between objective antibody and the FcγR was carried out using Biacore T100 (GE Healthcare). HBS-EP+ (GE Healthcare) was used as the running buffer, and the measurement temperature was set to 25° C. Chips produced by immobilizing the antigen peptide by the amine coupling method to a Series S Sencor Chip CM5 (GE Healthcare), or alternatively, chips produced by allowing preliminarily biotinylated antigen peptides to interact with and immobilize onto a Series S Sensor Chip SA (certified) (GE Healthcare) were used. Antibodies of interest were captured onto an antigen peptide-immobilized chip, and allowed to interact to each FcγR diluted with running buffer. To regenerate and repeatedly use the chip, the antibodies captured on the chip were washed off by reacting 10 mM glycine-HCl, pH 1.5.

[2] = biological target: T2, FcγRIIb (human, UniProt P31994 43-217); assay: as above
T2 construct: extracellular domain; Soluble extracellular domain with C-terminal His tag, expressed in FreeStyle293 cells; also called FcgRIIb; 2b; not shown: C-terminal His tag
T2 sequence (looked up): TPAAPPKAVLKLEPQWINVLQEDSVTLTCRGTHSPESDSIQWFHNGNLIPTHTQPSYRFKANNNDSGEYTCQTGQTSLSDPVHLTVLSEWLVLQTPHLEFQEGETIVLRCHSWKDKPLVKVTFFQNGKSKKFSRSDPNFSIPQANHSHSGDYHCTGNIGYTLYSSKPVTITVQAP
Method: as §1, §2

Binder | He/Con_2aH [1] | He/Con_2b [2]
B1 | 29.8 % of GpH7-A5/GpH7-B3/GpL16-k0 (=100) | 111 % of GpH7-A5/GpH7-B3/GpL16-k0 (=100)
B2 | 45.9 % of GpH7-A5/GpH7-B3/GpL16-k0 (=100) | 115 % of GpH7-A5/GpH7-B3/GpL16-k0 (=100)
B3 | 53.5 % of GpH7-A5/GpH7-B3/GpL16-k0 (=100) | 73.2 % of GpH7-A5/GpH7-B3/GpL16-k0 (=100)
B4 | 97 % of GpH7-A5/GpH7-B3/GpL16-k0 (=100) | 144 % of GpH7-A5/GpH7-B3/GpL16-k0 (=100)
B5 | 84.6 % of GpH7-A5/GpH7-B3/GpL16-k0 (=100) | 204 % of GpH7-A5/GpH7-B3/GpL16-k0 (=100)
B6 | 57.6 % of GpH7-A5/GpH7-B3/GpL16-k0 (=100) | 80 % of GpH7-A5/GpH7-B3/GpL16-k0 (=100)
B7 | 15.2 % of GpH7-A5/GpH7-B3/GpL16-k0 (=100) | 180 % of GpH7-A5/GpH7-B3/GpL16-k0 (=100)
